This is an account of results in article PMC10397247.

The target of assay [1] is T1, APC4264-AA.
T1 chain: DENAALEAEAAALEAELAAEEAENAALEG
As to the kind of experiment: two-hybrid library CCmax.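 Further: natural log of median RNA to DNA barcode read ratio; higher means stronger binding.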 The note with it: mean of both orientations.

Assay [2] concerns the target T2, APC6108-AA.
T2 chain: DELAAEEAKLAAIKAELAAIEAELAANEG
As to the kind of experiment: two-hybrid library CCmax.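 Further: natural log of median RNA to DNA barcode read ratio; higher means stronger binding.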 As to conditions: mean of both orientations.

Assay [3] has as its target T3, APC7099-AA.
T3 chain: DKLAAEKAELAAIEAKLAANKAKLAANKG
As to the kind of experiment: two-hybrid library CCmax.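 Further: natural log of median RNA to DNA barcode read ratio; higher means stronger binding.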 The note with it: mean of both orientations.

The target of assay [4] is T4, APC8191-AA.
T4 chain: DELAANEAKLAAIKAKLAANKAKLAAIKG
The assay is described as follows: two-hybrid library CCmax.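 Further: natural log of median RNA to DNA barcode read ratio; higher means stronger binding.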

The target of assay [5] is T5, APC4011-AA.
T5 chain: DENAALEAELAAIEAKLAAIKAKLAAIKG
As to the kind of experiment: two-hybrid library CCmax.

Assay [6] addresses T6, APC4436-AA.
T6 chain: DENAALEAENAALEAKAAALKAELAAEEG
As to the kind of experiment: two-hybrid library CCmax. As to conditions: mean of both orientations.

The target in assay [7] is T7, APC9096-AA.
T7 chain: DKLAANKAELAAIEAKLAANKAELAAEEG
The assay is described as follows: two-hybrid library CCmax. As to conditions: mean of both orientations.

Assay [8] concerns the target T8, APC9319-AA.
T8 chain: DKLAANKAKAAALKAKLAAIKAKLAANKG
The assay is described as follows: two-hybrid library CCmax. The note with it: mean of both orientations.

Assay [9] has as its target T9, APC5383-AA.
T9 chain: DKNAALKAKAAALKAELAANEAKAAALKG
The assay is described as follows: two-hybrid library CCmax. The note with it: mean of both orientations.

The target of assay [10] is T10, APC8910-AA.
T10 chain: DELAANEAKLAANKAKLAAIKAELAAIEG
The assay is described as follows: two-hybrid library CCmax. As to conditions: mean of both orientations.

In assay [11] the target is T11, 4H730-bA.
T11 chain: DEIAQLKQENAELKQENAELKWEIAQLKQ
The assay is described as follows: two-hybrid library CCNG1.

Assay [12] has as its target T12, 4H56-bA.
T12 chain: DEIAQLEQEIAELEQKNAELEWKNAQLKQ
The assay is described as follows: two-hybrid library CCNG1.

Assay [13] has as its target T13, 4H796-bA.
T13 chain: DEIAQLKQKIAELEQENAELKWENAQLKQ
As to the kind of experiment: two-hybrid library CCNG1.

Assay [14] has as its target T14, 4H932-bA.
T14 chain: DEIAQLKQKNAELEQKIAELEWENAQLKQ
As to the kind of experiment: two-hybrid library CCNG1.

The target of assay [15] is T15, 4H3381-bA.
T15 chain: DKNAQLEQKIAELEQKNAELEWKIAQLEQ
As to the kind of experiment: two-hybrid library CCNG1.

Assay [16] concerns the target T16, 4H949-bA.
T16 chain: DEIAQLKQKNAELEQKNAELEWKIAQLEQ
The assay is described as follows: two-hybrid library CCNG1.

Assay [17] deals with T17, 4H349-bA.
T17 chain: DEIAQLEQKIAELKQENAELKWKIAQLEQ
The assay is described as follows: two-hybrid library CCNG1.

The target in assay [18] is T18, 4H4001-bA.
T18 chain: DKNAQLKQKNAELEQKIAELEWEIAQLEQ
As to the kind of experiment: two-hybrid library CCNG1.

Assay [19] concerns the target T19, O9-bH.
T19 chain: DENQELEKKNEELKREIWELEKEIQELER
As to the kind of experiment: two-hybrid library CCNG1. The note with it: mean of both orientations.

DENAALEAELAAIEAKLAAIKAKLAAIKG [APC4011-AA]: the interaction score in assay [1] is -1.72; in [2], 0.352; in [3] it was -1.45; in [4], -1.55; in assay [5], 2.04; in [6] it was -1.48. For the same molecule, the interaction score is -1.88 in [7], -1.27 in assay [8], -1.52 in assay [9] and -1.43 in [10].
Take DKNAQLEQKIAELEQKNAELEWKIAQLEQ [4H3381-bA]: the interaction score is -1.47 in [11]; -0.961 in assay [12]; -0.941 in assay [13]; -0.845 in assay [14]; 0.241 in assay [15]; -1.1 in [16]. The figures for the interaction score in [17] and in [18] were -1.06 and -0.563, respectively.
DENQELEKKNEELKREIWELEKEIQELER [O9-bH] gave an interaction score in [19] of -0.295.
